This note sets out measurements from patent publication US20200108125A1.

The target of the assay is TrkB (mouse) (UniProt P15209). Briefly: cell-based or functional assay.
Chain of UniProt P15209 (P15209 32-821): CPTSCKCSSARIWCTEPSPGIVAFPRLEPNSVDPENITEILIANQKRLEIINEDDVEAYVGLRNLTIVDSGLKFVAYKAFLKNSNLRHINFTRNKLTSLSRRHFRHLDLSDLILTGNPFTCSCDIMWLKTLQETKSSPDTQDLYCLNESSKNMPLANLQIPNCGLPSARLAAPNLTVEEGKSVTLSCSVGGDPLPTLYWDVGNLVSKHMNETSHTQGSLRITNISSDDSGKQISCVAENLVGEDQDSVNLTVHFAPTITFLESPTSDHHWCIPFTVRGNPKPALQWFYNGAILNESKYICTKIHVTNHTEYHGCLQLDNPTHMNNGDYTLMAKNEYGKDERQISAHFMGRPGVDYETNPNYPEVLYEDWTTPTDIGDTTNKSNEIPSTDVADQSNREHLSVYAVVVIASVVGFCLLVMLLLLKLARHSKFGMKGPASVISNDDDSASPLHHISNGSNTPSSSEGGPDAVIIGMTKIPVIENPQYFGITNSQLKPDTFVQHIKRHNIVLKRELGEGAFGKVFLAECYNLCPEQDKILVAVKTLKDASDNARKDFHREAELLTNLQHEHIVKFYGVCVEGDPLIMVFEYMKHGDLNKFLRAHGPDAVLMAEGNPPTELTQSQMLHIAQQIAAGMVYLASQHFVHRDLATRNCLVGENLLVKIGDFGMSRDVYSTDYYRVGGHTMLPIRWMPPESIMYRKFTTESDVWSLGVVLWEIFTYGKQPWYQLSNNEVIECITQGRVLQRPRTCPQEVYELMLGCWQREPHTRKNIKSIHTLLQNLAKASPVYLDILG

On to “Recombinant human BDNF (from UniProt P23560 129-247) (ligand)”, for which the Fndc5 gene expression (qPCR) in primary cortical neurons stimulated overnight with BDNF (0.1-100 ng/ml); lowest concentration with a significant reduction was found to be 1 ng/mL.
